Where two headings read alike, the source gives them in different places. Primed or numbered codes have the meaning given here. No end group written: not given here.
How the values were obtained:
[1] = Pharmacokinetics of apelin and apelin conjugates, intravenous; type: in vivo, Sprague-Dawley rats; settings: for pharmacokinetic properties compared to unmodified apelin: ELISA (FIG. 5); for bioavailability improvement: AUC versus native apelin-13, 0.1 mg/kg intravenous
Procedure: FIG. 5: Pharmacokinetics of apelin and apelin conjugates. Apelin alone or conjugated to the Vitamin D-(25)-PEG2k-maleimide carrier, or the Vitamin D-(3)-PEG2k-aldehyde carrier were injected intravenously into Sprague-Dawley rats at 0.1 mg/kg. Plasma samples were analyzed for apelin concentration by ELISA in duplicate and the average value from three animals were plotted on the semi-log graph.
Plasma samples were taken at 5 min, and 0.5, 1, 2, 4, 8 and 24 hr and analyzed for the presence of apelin by quantitative ELISA (Phoenix Pharmaceuticals, Burlingame, Calif., Cat. No. EK-057-23). […] Unmodified apelin decayed to near-background levels within 5 minutes of injection.
The decay rates of the carrier-conjugates are complex and probably represent a combination of slower renal clearance and protection from protease degradation. A pharmacokinetic analysis of the data was then performed using WinNonLin (PharSight) and GraphPad (Prism).

[2] = Bertrand et al. 2015; cited from earlier work
[3] = in vivo; cited from earlier work
[4] = natural state; WO03/011213, Kharitonenkov et al. 2005; cited from earlier work
[5] = Pharmacokinetics of FGF21 conjugates, subcutaneous; type: in vivo, Sprague Dawley rats; settings: 0.1 mg/kg sc; for Cmax: plasma, human FGF21 ELISA
Procedure: The pharmacokinetics of FGF21 conjugates in Sprague Dawley rats were determined. Unmodified FGF21, VitD-(25)-PEG2K-FGF21 and VitD-(3)-PEG2K-FGF21 were compared. […] The samples were analyzed using commercial ELISA kits for human FGF21 (Millipore Cat. No. EZHFGF21-19K). […] Improvements in the mean residence time (MRT) and terminal rate constant (Lz) values were also observed.

[6] = target: T1, human FGF21 receptor (FGFR1), recruitment of co-receptor β-Klotho (Homo sapiens, UniProt P11362+Q86Z14); assay: PathHunter U2OS FGFR1-β-Klotho Functional Assay; type: cell-based; settings: PathHunter U2OS cells expressing FGFR1, β-Klotho recruitment, chemiluminescence
T1 construct: host or cells: U2OS (PathHunter)
T1 sequence (P11362 22-822): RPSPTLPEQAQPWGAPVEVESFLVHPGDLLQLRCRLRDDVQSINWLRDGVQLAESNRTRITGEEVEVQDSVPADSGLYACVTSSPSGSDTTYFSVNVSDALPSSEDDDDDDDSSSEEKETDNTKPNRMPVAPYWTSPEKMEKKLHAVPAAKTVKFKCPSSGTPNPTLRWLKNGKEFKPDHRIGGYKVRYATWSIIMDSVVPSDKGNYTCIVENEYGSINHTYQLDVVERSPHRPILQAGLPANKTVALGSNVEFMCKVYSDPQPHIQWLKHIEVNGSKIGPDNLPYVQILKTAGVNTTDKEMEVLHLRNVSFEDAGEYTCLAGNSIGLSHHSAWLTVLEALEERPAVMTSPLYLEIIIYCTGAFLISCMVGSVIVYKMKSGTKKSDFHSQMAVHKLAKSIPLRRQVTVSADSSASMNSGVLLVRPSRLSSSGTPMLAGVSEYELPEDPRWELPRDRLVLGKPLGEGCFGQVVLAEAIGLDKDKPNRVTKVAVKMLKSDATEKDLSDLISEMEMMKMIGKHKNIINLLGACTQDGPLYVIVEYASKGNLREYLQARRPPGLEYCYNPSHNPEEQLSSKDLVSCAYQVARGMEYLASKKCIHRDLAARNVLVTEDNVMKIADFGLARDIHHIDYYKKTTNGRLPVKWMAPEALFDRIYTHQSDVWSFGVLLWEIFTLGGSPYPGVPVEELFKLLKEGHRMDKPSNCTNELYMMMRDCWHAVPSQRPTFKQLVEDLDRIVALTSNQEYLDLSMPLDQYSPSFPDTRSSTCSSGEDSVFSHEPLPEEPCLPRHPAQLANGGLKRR
T1 sequence (Q86Z14 52-1044 limits assumed): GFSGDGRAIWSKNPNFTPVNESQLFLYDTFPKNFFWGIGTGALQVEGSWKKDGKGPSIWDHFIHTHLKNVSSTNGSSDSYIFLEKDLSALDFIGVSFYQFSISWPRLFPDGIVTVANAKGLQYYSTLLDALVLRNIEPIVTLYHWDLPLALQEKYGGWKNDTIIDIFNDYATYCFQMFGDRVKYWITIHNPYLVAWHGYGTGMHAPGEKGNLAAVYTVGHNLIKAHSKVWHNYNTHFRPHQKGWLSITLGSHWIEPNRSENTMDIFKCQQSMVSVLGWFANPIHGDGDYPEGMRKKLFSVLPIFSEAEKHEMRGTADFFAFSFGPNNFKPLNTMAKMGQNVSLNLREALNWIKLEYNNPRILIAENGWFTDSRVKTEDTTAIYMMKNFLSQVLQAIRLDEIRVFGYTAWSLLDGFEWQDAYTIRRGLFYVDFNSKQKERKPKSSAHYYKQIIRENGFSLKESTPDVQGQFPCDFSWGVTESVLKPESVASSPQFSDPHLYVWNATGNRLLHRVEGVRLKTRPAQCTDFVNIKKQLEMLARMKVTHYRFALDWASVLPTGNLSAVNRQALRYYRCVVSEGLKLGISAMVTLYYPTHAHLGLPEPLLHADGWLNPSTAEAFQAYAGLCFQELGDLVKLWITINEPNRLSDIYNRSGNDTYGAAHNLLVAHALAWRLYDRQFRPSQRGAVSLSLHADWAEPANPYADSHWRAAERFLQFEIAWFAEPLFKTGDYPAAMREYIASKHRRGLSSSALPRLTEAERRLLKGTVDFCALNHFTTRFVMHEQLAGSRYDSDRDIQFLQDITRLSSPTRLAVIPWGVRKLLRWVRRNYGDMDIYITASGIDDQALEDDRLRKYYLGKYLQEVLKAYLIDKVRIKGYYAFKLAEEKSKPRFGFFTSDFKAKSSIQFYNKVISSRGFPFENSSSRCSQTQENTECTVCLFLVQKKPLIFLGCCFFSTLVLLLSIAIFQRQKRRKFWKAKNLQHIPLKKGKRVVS
Description: In some embodiments, the activity of the FG21, when conjugated to a carrier, was substantially the same as unmodified protein. […] PathHunter® cells stably express human FGF21 receptor (FGFR1). They were monitored for recruitment of the co-receptor, β-Klotho, following exposure to the test compounds using the PathHunter® Detection reagent cocktail on a PerkinElmer Envision instrument with chemiluminescent signal detection. […] Thus, the FGF21 conjugates retained about the same receptor activity as the unmodified FGF21 protein or better.

[7] = 0.1 mg/kg intravenous, plasma, ELISA

| Molecule | AUCtot [5] | Lz (terminal rate constant) [5] | MRT [5] [h] | Tmax [5] [h] | t½ [5] [h] | Cmax [5] [ng/mL] | EC50 [6] [µg/mL] | also measured |
| --- | --- | --- | --- | --- | --- | --- | --- | --- |
| CSCC[C@H](NC(=O)[C@@H]1CCCN1C(=O)CNC(=O)[C@H](CCCCN)NC(=O)[C@H](Cc1cnc[nH]1)NC(=O)[C@H](CO)NC(=O)[C@H](CC(C)C)NC(=O)[C@H](CCCNC(=N)N)NC(=O)[C@@H]1CCCN1C(=O)[C@H](CCCNC(=N)N)NC(=O)[C@@H](N)CCC(N)=O)C(=O)N1CCC[C@H]1C(=O)N[C@@H](Cc1ccccc1)C(=O)O [apelin-13, reference compound] | – | – | – | – | – | – | – | time to decay to near-background levels after injection [1, 7]: ≤ 5 min; AUC ([1]; Sprague-Dawley, rat, 0.1 mg/kg intravenous, plasma, ELISA, read-out: AUC): 0.4 ng·h/mL; in vivo half-life [2]: ≤ 0.333 h |
| PTH: Parathyroid hormone, polypeptide containing 84 amino acids secreted by the parathyroid glands | – | – | – | – | – | – | – | half-life [3]: approximately 4 minutes |
| VitD-(3)-PEG2K-apelin: Apelin-13 conjugated at N-terminal amine to Vitamin D-(3)-PEG2K-aldehyde carrier ({VitD‑(3)-PEG2K}-QRPRLSHKGPMPF) | – | – | – | – | – | – | – | AUC [1, 7]: 328 ng·h/mL; pharmacokinetic properties compared to unmodified apelin ([1]; 0.1 mg/kg intravenous, plasma): significantly improved pharmacokinetic properties; bioavailability improvement [1]: 820 fold |
| VitD-(25)-PEG2K-C-apelin: C-apelin (SEQ ID NO:16, N-terminal cysteine) conjugated to VitD-(25)-PEG2K-maleimide carrier (CQRPRLSHKGPMPF; VitD-(25)-PEG2K-maleimide carrier conjugate) | – | – | – | – | – | – | – | AUC [1, 7]: 85 ng·h/mL; pharmacokinetic properties compared to unmodified apelin ([1]; 0.1 mg/kg intravenous, plasma): improved pharmacokinetic properties; bioavailability improvement [1]: 213 fold |
| FGF21 in its natural state: Fibroblast Growth Factor 21, protein that circulates in serum, natural state (protein, UniProt Q9NSA1 29-209, looked up) Fibroblast growth factor 21: HPIPDSSPLLQFGGQVRQRYLYTDDAQQTEAHLEIREDGTVGGAADQSPESLLQLKALKPGVIQILGVKTSRFLCQRPDGALYGSLHFDPEACSFRELLLEDGYNVYQSEAHGLPLHLPGNKSPHRDPAPRGPARFLPLPGLPPALPEPPGILAPQPPDVGSSDPLSMVGPSQGRSPSYAS | – | – | – | – | – | – | – | half-life in serum [4]: about 1.1 hours |
| FGF21: Modified FGF21 expressed in E. coli, I3C substitution and His6 tag, SEQ ID NO:22, not conjugated (protein, His6 tag) MHHHHHHHPCPDSSPLLQFGGQVRQRYLYTDDAQQTEAHLEIREDGTVGGAADQSPESLLQLKALKPGVIQILGVKTSRFLCQRPDGALYGSLHFDPEACSFRELLLEDGYNVYQSEAHGLPLHLPGNKSPHRDPAPRGPARFLPLPGLPPALPEPPGILAPQPPDVGSSDPLSMVGPSQGRSPSYAS | 228 h(ng/ml) | .534 h⁻¹ | 2.8 | 2 | 1.3 | 59 | 0.16 | – |
| VitD-(25)-PEG2K-FGF21: Modified FGF21 (SEQ ID NO:22) conjugated via free cysteine to VitD-(25)-PEG2K-maleimide (conjugate, VitD-PEG2K-maleimide conjugated at free cysteine) MHHHHHHHPCPDSSPLLQFGGQVRQRYLYTDDAQQTEAHLEIREDGTVGGAADQSPESLLQLKALKPGVIQILGVKTSRFLCQRPDGALYGSLHFDPEACSFRELLLEDGYNVYQSEAHGLPLHLPGNKSPHRDPAPRGPARFLPLPGLPPALPEPPGILAPQPPDVGSSDPLSMVGPSQGRSPSYAS | 1640 h(ng/ml) | .131 h⁻¹ | 7.9 | 2 | 5.3 | 115 | 0.13 | half-life (t1/2) [5]: 5.3 h; half-life improvement compared to unmodified FGF21 [5]: 4.1 fold; improvement in AUC values versus unmodified FGF21 [5]: 7.2 fold |
| VitD-(3)-PEG2K-FGF21: Modified FGF21 (SEQ ID NO:22) conjugated via free cysteine to VitD-(3)-PEG2K-maleimide (conjugate, VitD-PEG2K-maleimide conjugated at free cysteine) MHHHHHHHPCPDSSPLLQFGGQVRQRYLYTDDAQQTEAHLEIREDGTVGGAADQSPESLLQLKALKPGVIQILGVKTSRFLCQRPDGALYGSLHFDPEACSFRELLLEDGYNVYQSEAHGLPLHLPGNKSPHRDPAPRGPARFLPLPGLPPALPEPPGILAPQPPDVGSSDPLSMVGPSQGRSPSYAS | 2727 h(ng/ml) | .0604 h⁻¹ | 18.9 | 4 | 11.5 | 118 | 0.40 | half-life (t1/2) [5]: 11.5 h; half-life improvement compared to unmodified FGF21 [5]: 8.8 fold; improvement in AUC values versus unmodified FGF21 [5]: 12.0 fold |

Source: patent US11116816B2, “Therapeutic vitamin d conjugates” (Extend Biosciences, Inc., priority 2014, dated 2021)
